Experimental data taken from publication PMC11574045, “A cofactor-induced repressive type of transcription factor condensation can be induced by synthetic peptides to suppress tumorigenesis” (The EMBO Journal, 2024).

Test system: HEK293FT cells transfected with TF library
Experiment: Screening of TF condensates based on fluorescent puncta
Format: cell-based
Conditions: Figure 1B numerical data; TF library screen, one value per transcriptional factor
Summary of the method: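 Puncta scoring used automated confocal imaging of fifty random fields per well, after anti-Flag or anti-GAL4 immunofluorescence (Alexa 488) in PFA-fixed cells. HEK293FT cells carried TF library plasmids delivered with PEI (1.6 μg/ml DNA). At 60 h they were switched for 12 h to glucose-containing or glucose-free medium.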

Molecule | Z score of condensed fraction
TRIP4 (protein, UniProt Q15650 2-581, looked up) Activating signal …: AVAGAVSGEPLVHWCTQQLRKTFGLDVSEEIIQYVLSIESAEEIREYVTDLLQGNEGKKGQFIEELITKWQKNDQELISDPLQQCFKKDEILDGQKSGDHLKRGRKKGRNRQEVPAFTEPDTTAEVKTPFDLAKAQENSNSVKKKTKFVNLYTREGQDRLAVLLPGRHPCDCLGQKHKLINNCLICGRIVCEQEGSGPCLFCGTLVCTHEEQDILQRDSNKSQKLLKKLMSGVENSGKVDISTKDLLPHQELRIKSGLEKAIKHKDKLLEFDRTSIRRTQVIDDESDYFASDSNQWLSKLERETLQKREEELRELRHASRLSKKVTIDFAGRKILEEENSLAEYHSRLDETIQAIANGTLNQPLTKLDRSSEEPLGVLVNPNMYQSPPQWVDHTGAASQKKAFRSSGFGLEFNSFQHQLRIQDQEFQEGFDGGWCLSVHQPWASLLVRGIKRVEGRSWYTPHRGRLWIAATAKKPSPQEVSELQATYRLLRGKDVEFPNDYPSGCLLGCVDLIDCLSQKQFKEQFPDISQESDSPFVFICKNPQEMVVKFPIKGNPKIWKLDSKIHQGAKKGLMKQNKAV | 0.1966
TRP63 (protein, UniProt Q9H3D4 1-680, looked up) Tumor protein 63: MNFETSRCATLQYCPDPYIQRFVETPAHFSWKESYYRSTMSQSTQTNEFLSPEVFQHIWDFLEQPICSVQPIDLNFVDEPSEDGATNKIEISMDCIRMQDSDLSDPMWPQYTNLGLLNSMDQQIQNGSSSTSPYNTDHAQNSVTAPSPYAQPSSTFDALSPSPAIPSNTDYPGPHSFDVSFQQSSTAKSATWTYSTELKKLYCQIAKTCPIQIKVMTPPPQGAVIRAMPVYKKAEHVTEVVKRCPNHELSREFNEGQIAPPSHLIRVEGNSHAQYVEDPITGRQSVLVPYEPPQVGTEFTTVLYNFMCNSSCVGGMNRRPILIIVTLETRDGQVLGRRCFEARICACPGRDRKADEDSIRKQQVSDSTKNGDGTKRPFRQNTHGIQMTSIKKRRSPDDELLYLPVRGRETYEMLLKIKESLELMQYLPQHTIETYRQQQQQQHQHLLQKQTSIQSPSSYGNSSPPLNKMNSMNKLPSVSQLINPQQRNALTPTTIPDGMGANIPMMGTHMPMAGDMNGLSPTQALPPPLSMPSTSHCTPPPPYPTDCSIVSFLARLGCSSCLDYFTTQGLTTIYQIEHYSMDDLASLKIPEQFRHAIWKGILDHRQLHEFSSPSHLLRTPSSASTVSVGSSETRGERVIDAVRFTLRQTISFPPRDEWNDFNFDMDARRNKQQRIKEEGE | -0.7687
